Measured values as given in US20130012432A1 (Novo Nordisk, published 2013).
Positions of bridges follow the written chain, without caps; N, C: chain ends. Non-standard residues stand in square brackets, D forms with d. Groups on a side chain read outwards from the residue. Primed or numbered codes have the meaning given here. *: point of attachment. X5 = NH(2-(2-(2-(17-carboxyheptadecanoylamino)ethoxy)ethoxy)ethyl), O=C(O)CCCCCCCCCCCCCCCCC(=O)NCCOCCOCCN*; X6 = (2-(2-(17-carboxyheptadecanoylamino)ethoxy)ethoxy)acetyl, O=C(O)CCCCCCCCCCCCCCCCC(=O)NCCOCCOCC(=O)*; X3 = (2-(2-(15-carboxypentadecanoylamino)ethoxy)ethoxy)acetyl, O=C(O)CCCCCCCCCCCCCCC(=O)NCCOCCOCC(=O)*; X4 = (2-(2-(16-carboxyhexadecanoylamino)ethoxy)ethoxy)acetyl, O=C(O)CCCCCCCCCCCCCCCC(=O)NCCOCCOCC(=O)*; biscarboxymethyl = Lys(biscarboxymethyl) = Nepsilon-bis(carboxymethyl)-L-lysine; Palmitoyl(16-(5-tetrazolyl)) = O=C(CCCCCCCCCCCCCCCc1nnn[nH]1)*; biscarboxymethyl(3) = Nepsilon-bis(carboxymethyl) on Lys; Lys(CH2CO2H)2 = N[C@@H](CCCCN(CC(=O)O)CC(=O)O)C(=O)O; C17 diacid = O=C(O)CCCCCCCCCCCCCCCC(=O)*; Hyp = O=C(O)[C@@H]1C[C@@H](O)CN1; Orn = NCCC[C@H](N)C(=O)O; Dab = NCC[C@H](N)C(=O)O; Dap = NC[C@H](N)C(=O)O; AEEA = NCCOCCOCC(=O)O

B1: Ac-c[Glu-His-D-Phe-Arg-Trp-Orn]-Pro-Pro-Asp-Lys(biscarboxymethyl)-Lys({2-[2-(17-carboxyheptadecanoylamino)ethoxy]ethoxy}acetyl)-NH2 (peptide)
peptide: Ac-EH[dF]RW[Orn]PPDK(biscarboxymethyl)K(X6)-NH2
modifications: lactam 1-6
B2: Ac-c[Glu-His-D-Phe-Arg-Trp-Dab]-Hyp-Hyp-Arg-Asp-Lys(biscarboxymethyl)-Lys[(2-{2-[16-(tetrazol-5-yl)hexadecanoylamino]ethoxy}ethoxy)acetyl]-NH2 (peptide)
peptide: Ac-EH[dF]RW[Dab][Hyp][Hyp]RDK(biscarboxymethyl(3))K([AEEA-Palmitoyl(16-(5-tetrazolyl))])-NH2
modifications: lactam 1-6
B3: Ac-c[Glu-Gln-D-Phe-Arg-Trp-Orn]-Pro-Pro-Arg-Asp-Lys(biscarboxymethyl)-Lys[(2-{2-[16-(tetrazol-5-yl)hexadecanoylamino]ethoxy}ethoxy)acetyl]-NH2 (peptide)
peptide: Ac-EQ[dF]RW[Orn]PPRDK(biscarboxymethyl(3))K([AEEA-Palmitoyl(16-(5-tetrazolyl))])-NH2
modifications: lactam 1-6
B4: Ac-c[Glu-His-D-Phe-Arg-Trp-Orn]-Pro-Pro-Asp-Lys(biscarboxymethyl)-Lys({2-[2-(15-carboxypentadecanoylamino)ethoxy]ethoxy}acetyl)-NH2 (peptide)
peptide: Ac-EH[dF]RW[Orn]PPDK(biscarboxymethyl)K(X3)-NH2
modifications: lactam 1-6
B5: Ac-c[Dab-His-D-Phe-Arg-Trp-Asp]-Pro-Pro-Arg-Glu-Lys(biscarboxymethyl)-Ser-Ser-NH(2-{2-[2-(17-carboxyheptadecanoylamino)ethoxy]ethoxy}ethyl) (peptide)
peptide: Ac-[Dab]H[dF]RWDPPREK(biscarboxymethyl(3))SS-X5
modifications: lactam 1-6
B6: Ac-c[Lys-His-D-Phe-Arg-Trp-Asp]-Pro-Ser-His-Glu-Lys(biscarboxymethyl)-Lys({2-[2-(16-carboxyhexadecanoylamino)ethoxy]ethoxy}acetyl)-NH2 (peptide)
peptide: Ac-KH[dF]RWDPSHE[Lys(CH2CO2H)2]K([AEEA-C17 diacid])-NH2
modifications: lactam 1-6
SMILES: CC(=O)N[C@H]1CCCCNC(=O)C[C@@H](C(=O)N2CCC[C@H]2C(=O)N[C@@H](CO)C(=O)N[C@@H](Cc2c[nH]cn2)C(=O)N[C@@H](CCC(=O)O)C(=O)N[C@@H](CCCCN(CC(=O)O)CC(=O)O)C(=O)N[C@@H](CCCCNC(=O)COCCOCCNC(=O)CCCCCCCCCCCCCCCC(=O)O)C(N)=O)NC(=O)[C@H](Cc2c[nH]c3ccccc23)NC(=O)[C@H](CCCNC(=N)N)NC(=O)[C@@H](Cc2ccccc2)NC(=O)[C@H](Cc2c[nH]cn2)NC1=O
B7: Ac-c[Lys-His-D-Phe-Arg-Trp-Glu]-Pro-Pro-His-Glu-Lys(biscarboxymethyl)-Lys({2-[2-(16-carboxyhexadecanoylamino)ethoxy]ethoxy}acetyl)-NH2 (peptide)
peptide: Ac-KH[dF]RWEPPHE[Lys(CH2CO2H)2]K([AEEA-C17 diacid])-NH2
modifications: lactam 1-6
SMILES: CC(=O)N[C@H]1CCCCNC(=O)CC[C@@H](C(=O)N2CCC[C@H]2C(=O)N2CCC[C@H]2C(=O)N[C@@H](Cc2c[nH]cn2)C(=O)N[C@@H](CCC(=O)O)C(=O)N[C@@H](CCCCN(CC(=O)O)CC(=O)O)C(=O)N[C@@H](CCCCNC(=O)COCCOCCNC(=O)CCCCCCCCCCCCCCCC(=O)O)C(N)=O)NC(=O)[C@H](Cc2c[nH]c3ccccc23)NC(=O)[C@H](CCCNC(=N)N)NC(=O)[C@@H](Cc2ccccc2)NC(=O)[C@H](Cc2c[nH]cn2)NC1=O
B8: Ac-c[Orn-Glu-His-D-Phe-Arg-Trp-Gly-Asp]-Pro-Ser-Lys-Glu-Glu-Ser-Ser-Lys({2-[2-(16-carboxyhexadecanoylamino)ethoxy]ethoxy}acetyl)-NH2 (peptide)
peptide: Ac-[Orn]EH[dF]RWGDPSKEESSK(X4)-NH2
modifications: lactam 1-8
SMILES: CC(=O)N[C@H]1CCCNC(=O)C[C@@H](C(=O)N2CCC[C@H]2C(=O)N[C@@H](CO)C(=O)N[C@@H](CCCCN)C(=O)N[C@@H](CCC(=O)O)C(=O)N[C@@H](CCC(=O)O)C(=O)N[C@@H](CO)C(=O)N[C@@H](CO)C(=O)N[C@@H](CCCCNC(=O)COCCOCCNC(=O)CCCCCCCCCCCCCCCC(=O)O)C(N)=O)NC(=O)CNC(=O)[C@H](Cc2c[nH]c3ccccc23)NC(=O)[C@H](CCCNC(=N)N)NC(=O)[C@@H](Cc2ccccc2)NC(=O)[C@H](Cc2c[nH]cn2)NC(=O)[C@H](CCC(=O)O)NC1=O
B9: Ac-c[Glu-His-D-Phe-Arg-Trp-Lys]-Pro-Pro-Arg-Asp-Lys(biscarboxymethyl)-Lys[(2-{2-[16-(tetrazol-5-yl)hexadecanoylamino]ethoxy}ethoxy)acetyl]-NH2 (peptide)
peptide: Ac-EH[dF]RWKPPRD[Lys(CH2CO2H)2]K([AEEA-Palmitoyl(16-(5-tetrazolyl))])-NH2
modifications: lactam 1-6
SMILES: CC(=O)N[C@H]1CCC(=O)NCCCC[C@@H](C(=O)N2CCC[C@H]2C(=O)N2CCC[C@H]2C(=O)N[C@@H](CCCNC(=N)N)C(=O)N[C@@H](CC(=O)O)C(=O)N[C@@H](CCCCN(CC(=O)O)CC(=O)O)C(=O)N[C@@H](CCCCNC(=O)COCCOCCNC(=O)CCCCCCCCCCCCCCCc2nnn[nH]2)C(N)=O)NC(=O)[C@H](Cc2c[nH]c3ccccc23)NC(=O)[C@H](CCCNC(=N)N)NC(=O)[C@@H](Cc2ccccc2)NC(=O)[C@H](Cc2c[nH]cn2)NC1=O
B10: Ac-c[Orn-His-D-Phe-Arg-Trp-Glu]-Pro-Ser-Ser-Ser-Glu-Glu-Ser-Ser-Lys({2-[2-(16-carboxyhexadecanoylamino)ethoxy]ethoxy}acetyl)-NH2 (peptide)
peptide: Ac-[Orn]H[dF]RWEPSSSEESSK([AEEA-C17 diacid])-NH2
modifications: lactam 1-6
SMILES: CC(=O)N[C@H]1CCCNC(=O)CC[C@@H](C(=O)N2CCC[C@H]2C(=O)N[C@@H](CO)C(=O)N[C@@H](CO)C(=O)N[C@@H](CO)C(=O)N[C@@H](CCC(=O)O)C(=O)N[C@@H](CCC(=O)O)C(=O)N[C@@H](CO)C(=O)N[C@@H](CO)C(=O)N[C@@H](CCCCNC(=O)COCCOCCNC(=O)CCCCCCCCCCCCCCCC(=O)O)C(N)=O)NC(=O)[C@H](Cc2c[nH]c3ccccc23)NC(=O)[C@H](CCCNC(=N)N)NC(=O)[C@@H](Cc2ccccc2)NC(=O)[C@H](Cc2c[nH]cn2)NC1=O
B11: Ac-c[Orn-His-D-Phe-Arg-Trp-Glu]-Pro-Ser-Lys-Glu-Glu-Ser-Ser-Glu-Lys({2-[2-(16-carboxyhexadecanoylamino)ethoxy]ethoxy}acetyl)-NH2 (peptide)
peptide: Ac-[Orn]H[dF]RWEPSKEESSEK([AEEA-C17 diacid])-NH2
modifications: lactam 1-6
SMILES: CC(=O)N[C@H]1CCCNC(=O)CC[C@@H](C(=O)N2CCC[C@H]2C(=O)N[C@@H](CO)C(=O)N[C@@H](CCCCN)C(=O)N[C@@H](CCC(=O)O)C(=O)N[C@@H](CCC(=O)O)C(=O)N[C@@H](CO)C(=O)N[C@@H](CO)C(=O)N[C@@H](CCC(=O)O)C(=O)N[C@@H](CCCCNC(=O)COCCOCCNC(=O)CCCCCCCCCCCCCCCC(=O)O)C(N)=O)NC(=O)[C@H](Cc2c[nH]c3ccccc23)NC(=O)[C@H](CCCNC(=N)N)NC(=O)[C@@H](Cc2ccccc2)NC(=O)[C@H](Cc2c[nH]cn2)NC1=O
B12: Ac-c[Lys-His-D-Phe-Arg-Trp-Asp]-Pro-Pro-Arg-Asp-Lys(biscarboxymethyl)-Lys[(2-{2-[16-(tetrazol-5-yl)hexadecanoylamino]ethoxy}ethoxy)acetyl]-NH2 (peptide)
peptide: Ac-KH[dF]RWDPPRD[Lys(CH2CO2H)2]K([AEEA-Palmitoyl(16-(5-tetrazolyl))])-NH2
modifications: lactam 1-6
SMILES: CC(=O)N[C@H]1CCCCNC(=O)C[C@@H](C(=O)N2CCC[C@H]2C(=O)N2CCC[C@H]2C(=O)N[C@@H](CCCNC(=N)N)C(=O)N[C@@H](CC(=O)O)C(=O)N[C@@H](CCCCN(CC(=O)O)CC(=O)O)C(=O)N[C@@H](CCCCNC(=O)COCCOCCNC(=O)CCCCCCCCCCCCCCCc2nnn[nH]2)C(N)=O)NC(=O)[C@H](Cc2c[nH]c3ccccc23)NC(=O)[C@H](CCCNC(=N)N)NC(=O)[C@@H](Cc2ccccc2)NC(=O)[C@H](Cc2c[nH]cn2)NC1=O
B13: Ac-c[Lys-His-D-Phe-Arg-Trp-Glu]-Pro-Pro-Arg-Asp-Lys(biscarboxymethyl)-Lys[(2-{2-[16-(tetrazol-5-yl)hexadecanoylamino]ethoxy}ethoxy)acetyl]-NH2 (peptide)
peptide: Ac-KH[dF]RWEPPRD[Lys(CH2CO2H)2]K([AEEA-Palmitoyl(16-(5-tetrazolyl))])-NH2
modifications: lactam 1-6
SMILES: CC(=O)N[C@H]1CCCCNC(=O)CC[C@@H](C(=O)N2CCC[C@H]2C(=O)N2CCC[C@H]2C(=O)N[C@@H](CCCNC(=N)N)C(=O)N[C@@H](CC(=O)O)C(=O)N[C@@H](CCCCN(CC(=O)O)CC(=O)O)C(=O)N[C@@H](CCCCNC(=O)COCCOCCNC(=O)CCCCCCCCCCCCCCCc2nnn[nH]2)C(N)=O)NC(=O)[C@H](Cc2c[nH]c3ccccc23)NC(=O)[C@H](CCCNC(=N)N)NC(=O)[C@@H](Cc2ccccc2)NC(=O)[C@H](Cc2c[nH]cn2)NC1=O
B14: Ac-c[Glu-His-D-Phe-Arg-Trp-Dap]-Hyp-Hyp-Arg-Asp-Lys(biscarboxymethyl)-Lys[(2-{2-[16-(tetrazol-5-yl)hexadecanoylamino]ethoxy}ethoxy)acetyl]-NH2 (peptide)
peptide: Ac-EH[dF]RW[Dap][Hyp][Hyp]RDK(biscarboxymethyl(3))K([AEEA-Palmitoyl(16-(5-tetrazolyl))])-NH2
modifications: lactam 1-6

These binders were tested against T1, human MC4 receptor (human, UniProt P32245 1-332) (assay: 125I-NDP-α-MSH displacement, BHK-human MC4 membranes (Assay V);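 further: Filter-retained radioactivity read by gamma counting, with affinity obtained through non-linear regression fitting of the binding curves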).
T1 construct: whole, on cells; Assayed as membranes of BHK cells stably expressing the receptor; also called melanocortin receptor subtype 4; melanocortin receptor 4
T1 sequence (P32245 whole entry): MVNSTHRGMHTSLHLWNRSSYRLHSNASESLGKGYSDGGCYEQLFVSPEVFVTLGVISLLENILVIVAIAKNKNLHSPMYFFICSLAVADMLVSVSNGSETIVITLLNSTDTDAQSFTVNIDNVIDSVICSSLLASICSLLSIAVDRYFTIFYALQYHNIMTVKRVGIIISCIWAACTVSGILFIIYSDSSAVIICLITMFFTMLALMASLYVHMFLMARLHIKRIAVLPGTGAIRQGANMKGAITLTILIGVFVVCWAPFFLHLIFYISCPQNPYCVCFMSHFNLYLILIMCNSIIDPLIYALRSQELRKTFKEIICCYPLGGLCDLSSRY
Method: The membranes were prepared from frozen or fresh cells that were homogenized in 20 mM HEPES pH 7.1, 5 mM MgCl₂ and 1 mg/ml bacitracin and centrifuged at 15000 rpm at 4° C., 10 min in a Sorvall RC 5B plus, SS-34 rotor. The supernatant was discarded, and the pellets were re-suspended in buffer, homogenized and centrifuged two more times. The final pellets were resuspended in the buffer mentioned above, and the protein concentration was measured and adjusted with buffer to 14 to 17 mg/ml and the membrane preparation were kept at −80° C. until assay. The assay was run directly on a dilution of this cell membrane suspension, without any further preparation. The BHK cell membranes are kept at −80° C. until assay, and the assay is run directly on a dilution of this cell membrane suspension, without further preparation. The suspension is diluted to give maximally 10% specific binding, i.e. to approx. 50-100 fold dilution. […] Test compounds were dissolved in DMSO and diluted in binding buffer. Radiolabelled ligand and membranes were diluted in binding buffer. The incubation was stopped by dilution with 2×100 μl ice-cold 0.9% NaCl. The radioactivity retained on the filters was counted using a Cobra II auto gamma counter.
The data were analysed by non-linear regression analysis of binding curves, using the Windows™ program GraphPad™ Prism (GraphPad Software, USA).
B1 gave a Ki of 0.0086 µM.
Work on B2 yielded a Ki of 0.105 µM.
For B3, the Ki was 0.058 µM.
In the case of B4, the Ki is reported as 0.064 µM.
B5 showed a Ki of 0.0125 µM.
B6 was tested, and the Ki was 0.025 µM.
B7 gave a Ki of 0.348 µM.
Binder B8 has a Ki of 0.125 µM.
B9 gave a Ki of 0.024 µM.
In the case of B10, the Ki is reported as 0.025 µM.
B11 showed a Ki of 0.038 µM.
B12 was tested, and the Ki was 0.00387 µM.
In the case of B13, the Ki is reported as 0.179 µM.
Binder B14 has a Ki of 0.017 µM.
